In the supplement of paper PMC12338614 one finds STK11 functional score data, which are given here for seven variants.

Sequences and labels used below:
B1: library; numbered along this chain (parent)
chain: MEVVDPQQLGMFTEGELMSVGMDTFIHRIDSTEVIYQPRRKRAKLIGKYLMGDLLGEGSYGKVKEVLDSETLCRRAVKILKKKKLRRIPNGEANVKKEIQLLRRLRHKNVIQLVDVLYNEEKQKMYMVMEYCVCGMQEMLDSVPEKRFPVCQAHGYFCQLIDGLEYLHSQGIVHKDIKPGNLLLTTGGTLKISDLGVAEALHPFAADDTCRTSQGSPAFQPPEIANGLDTFSGFKVDIWSAGVTLYNITTGLYPFEGDNIYKLFENIGKGSYAIPGDCGPPLSDLLKGMLEYEPAKRFSIRQIRQHSWFRKKHPPAEAPVPIPPSPDTKDRWRSMTVVPYLEDLHGADEDEDLFDIEDDIIYTQDFTVPGQVPEEEASHNGQRRGLPKAVCMNGTEAAQLSTKSRAEGRAPNPARKACSASSKIRRLSACKQQ

± gives the uncertainty stated by the source.

In the data set the parent is B1. Kind of data set: STK11 functional score (HeLa growth suppression), rescaled enrichment; synonymous median = 1, nonsense median = 0 (normalised score). Particulars: with HeLa; variant type: missense. Summed up:
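Functional scores are post/pre-selection log ratios corrected to wild type, rescaled to synonymous and nonsense medians, merged over codons and replicate transfections, and given bootstrapped error. They come from POPCode libraries of codon-optimised STK11 integrated by Bxb1 at an AAVS1 landing pad in HeLa, three regions each transfected three times, with BFP-negative, mCherry-positive integrants sorted by FACS and tiled gDNA amplicons sequenced on NextSeq.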
Take MEVVDPQQLGMFTEGELMSVGMDTFIHRIDSTEVIYQPRRKRAKLIGKYLMGDLLGEGSYGKVKEVLDSETLCRRAVKILKKKKLRRIPNGEANVKKEIQLLRRLRHKNVIQLVDVLYNEEKQKMYMVMEYCVCGMQEMLDSVPEKRFPVCQAHGYFCQLIDGLEYLHSQGIVHKDIKPGNLLLTTGGTLKISDLGVAEALHPFAADDTCRTSQGSPAFQPPEIANGLDTFSGFKVDIWSAGVTLYNITTGLYPFEGDNIYKLFENIGKGSYAIPGDCGPPLSDLLKGMLEYEPAKRFSIRQIRQHSWFRKKHPPAEAPVPIPPSPDTKDRWRSMTVVPYLEDLHGADEDEDLFDIEDDIIYTQDFTVPGQVPEEEASHNGQRRGLPKAACMNGTEAAQLSTKSRAEGRAPNPARKACSASSKIRRLSACKQQ [V390A]: the STK11 functional score was 1.51 ± 0.31.

In the case of MEVVDPQQLGMFTEGELMSVGMDTFIHRIDSTEVIYQPRRKRAKLIGKYLMGDLLGEGSYGKVKEVLDSETLCRRAVKILKKKKLRRIPNGEANVKKEIQLLRRLRHKNVIQLVDVLYNEEKQKMYMVMEYCVCGMQEMLDSVPEKRFPVCQAHGYFCQLIDGLEYLHSQGIVHKDIKPGNLLLTTGGTLKISDLGVAEALHPFAADDTCRTSQGSPAFQPPEIANGLDTFSGFKVDIWSAGVTLYNITTGLYPFEGDNIYKLFENIGKGSYAIPGDCGPPLSDLLKGMLEYEPAKRFSIRQIRQHSWFRKKHPPAEAPVPIPPSPDTKDRWRSMTVVPYLEDLHGADEDEDLFDIEDDIIYTQDFTVPGQVPEEEASHNGQRRGLPKAECMNGTEAAQLSTKSRAEGRAPNPARKACSASSKIRRLSACKQQ [V390E], the STK11 functional score is 1.44 ± 0.34.

Regarding MEVVDPQQLGMFTEGELMSVGMDTFIHRIDSTEVIYQPRRKRAKLIGKYLMGDLLGEGSYGKVKEVLDSETLCRRAVKILKKKKLRRIPNGEANVKKEIQLLRRLRHKNVIQLVDVLYNEEKQKMYMVMEYCVCGMQEMLDSVPEKRFPVCQAHGYFCQLIDGLEYLHSQGIVHKDIKPGNLLLTTGGTLKISDLGVAEALHPFAADDTCRTSQGSPAFQPPEIANGLDTFSGFKVDIWSAGVTLYNITTGLYPFEGDNIYKLFENIGKGSYAIPGDCGPPLSDLLKGMLEYEPAKRFSIRQIRQHSWFRKKHPPAEAPVPIPPSPDTKDRWRSMTVVPYLEDLHGADEDEDLFDIEDDIIYTQDFTVPGQVPEEEASHNGQRRGLPKADCMNGTEAAQLSTKSRAEGRAPNPARKACSASSKIRRLSACKQQ [V390D], the STK11 functional score came to 1.4 ± 0.28.

Turning to MEVVDPQQLGMFTEGELMSVGMDTFIHRIDSTEVIYQPRRKRAKLIGKYLMGDLLGEGSYGKVKEVLDSETLCRRAVKILKKKKLRRIPNGEANVKKEIQLLRRLRHKNVIQLVDVLYNEEKQKMYMVMEYCVCGMQEMLDSVPEKRFPVCQAHGYFCQLIDGLEYLHSQGIVHKDIKPGNLLLTTGGTLKISDLGVAEALHPFAADDTCRTSQGSPAFQPPEIANGLDTFSGFKVDIWSAGVTLYNITTGLYPFEGDNIYKLFENIGKGSYAIPGDCGPPLSDLLKGMLEYEPAKRFSIRQIRQHSWFRKKHPPAEAPVPIPPSPDTKDRWRSMTVVPYLEDLHGADEDEDLFDIEDDIIYTQDFTVPGQVPEEEASHNGQRRGLPKAGCMNGTEAAQLSTKSRAEGRAPNPARKACSASSKIRRLSACKQQ [V390G], the STK11 functional score was 1.39 ± 0.32.

As to MEVVDPQQLGMFTEGELMSVGMDTFIHRIDSTEVIYQPRRKRAKLIGKYLMGDLLGEGSYGKVKEVLDSETLCRRAVKILKKKKLRRIPNGEANVKKEIQLLRRLRHKNVIQLVDVLYNEEKQKMYMVMEYCVCGMQEMLDSVPEKRFPVCQAHGYFCQLIDGLEYLHSQGIVHKDIKPGNLLLTTGGTLKISDLGVAEALHPFAADDTCRTSQGSPAFQPPEIANGLDTFSGFKVDIWSAGVTLYNITTGLYPFEGDNIYKLFENIGKGSYAIPGDCGPPLSDLLKGMLEYEPAKRFSIRQIRQHSWFRKKHPPAEAPVPIPPSPDTKDRWRSMTVVPYLEDLHGADEDEDLFDIEDDIIYTQDFTVPGQVPEEEASHNGQRRGLPKAHCMNGTEAAQLSTKSRAEGRAPNPARKACSASSKIRRLSACKQQ [V390H], the STK11 functional score amounted to 0.912 ± 0.65.

Turning to MEVVDPQQLGMFTEGELMSVGMDTFIHRIDSTEVIYQPRRKRAKLIGKYLMGDLLGEGSYGKVKEVLDSETLCRRAVKILKKKKLRRIPNGEANVKKEIQLLRRLRHKNVIQLVDVLYNEEKQKMYMVMEYCVCGMQEMLDSVPEKRFPVCQAHGYFCQLIDGLEYLHSQGIVHKDIKPGNLLLTTGGTLKISDLGVAEALHPFAADDTCRTSQGSPAFQPPEIANGLDTFSGFKVDIWSAGVTLYNITTGLYPFEGDNIYKLFENIGKGSYAIPGDCGPPLSDLLKGMLEYEPAKRFSIRQIRQHSWFRKKHPPAEAPVPIPPSPDTKDRWRSMTVVPYLEDLHGADEDEDLFDIEDDIIYTQDFTVPGQVPEEEASHNGQRRGLPKAFCMNGTEAAQLSTKSRAEGRAPNPARKACSASSKIRRLSACKQQ [V390F], the STK11 functional score came out at 1.18 ± 0.4.

For the variant MEVVDPQQLGMFTEGELMSVGMDTFIHRIDSTEVIYQPRRKRAKLIGKYLMGDLLGEGSYGKVKEVLDSETLCRRAVKILKKKKLRRIPNGEANVKKEIQLLRRLRHKNVIQLVDVLYNEEKQKMYMVMEYCVCGMQEMLDSVPEKRFPVCQAHGYFCQLIDGLEYLHSQGIVHKDIKPGNLLLTTGGTLKISDLGVAEALHPFAADDTCRTSQGSPAFQPPEIANGLDTFSGFKVDIWSAGVTLYNITTGLYPFEGDNIYKLFENIGKGSYAIPGDCGPPLSDLLKGMLEYEPAKRFSIRQIRQHSWFRKKHPPAEAPVPIPPSPDTKDRWRSMTVVPYLEDLHGADEDEDLFDIEDDIIYTQDFTVPGQVPEEEASHNGQRRGLPKACCMNGTEAAQLSTKSRAEGRAPNPARKACSASSKIRRLSACKQQ [V390C], the STK11 functional score worked out at 1.06 ± 0.48.
